# Measured values: patent US20080305097A1, “Use of Protease or a Protease Inhibitor for the Manufacture of Medicaments” (YEDA RESEARCH AND DEVELOPMENT CO., LTD., priority 2004, published 2008)
# B1: G-CSF: granulocyte colony-stimulating factor (Filgrastin, Roche) (protein, UniProt P09919 31-207, looked up)
# Granulocyte …: TPLGPASSLPQSFLLKCLEQVRKIQGDGAALQEKLVSECATYKLCHPEELVLLGHSLGIPWAPLSSCPSQALQLAGCLSQLHSGLFLYQGLLQALEGISPELGPTLDTLQLDVADFATTIWQQMEELGMAPALQPTQGAMPAFASAFQRRAGGVLVASHLQSFLEVSYRVLRHLAQP
# modifications: filgrastim
# B2: RANKL: Receptor Activator of NK-kappaB Ligand, soluble murine, osteoclast differentiating factor (protein, UniProt O35235 70-316, looked up)
# extracellular domain: YFRAQMDPNRISEDSTHCFYRILRLHENADLQDSTLESEDTLPDSCRRMKQAFQGAVQKELQHIVGPQRFSGAPAMMEGSWLDVAQRGKPEAQPFAHLTINAASIPSGSHKVTLSSWYHDRGWAKISNMTLSNGKLRVNQDGFYYLYANICFRHHETSGSVPTDYLQLMVYVVKTSIKIPSSHNLMKGGSTKNWSGNSEFHFYSINVGGFFKLRAGEEISIQVSNPSLLDPDQDATYFGAFKVQDID
# modifications: extracellular domain
# B3: CTK: cathepsin K, lysosomal cysteine protease, the major osteoclast bone resorbing enzyme (protein, UniProt P43235 115-329, looked up)
# Cathepsin K: APDSVDYRKKGYVTPVKNQGQCGSCWAFSSVGALEGQLKKKTGKLLNLSPQNLVDCVSENDGCGGGYMTNAFQYVQKNRGIDSEDAYPYVGQEESCMYNPTGKAAKCRGYREIPEGNEKALKRAVARVGPVSVAIDASLTSFQFYSKGVYYDESCNSDNLNHAVLAVGYGIQKGNKHWIIKNSWGENWGNKGYILMARNKNNACGIANLASFPKM
# Columns and labels:
# SDF-1 [1] = assay: SDF-1 transcription (RT-PCR) and secretion (ELISA) in primary calvaria osteoblasts; format: cell-based, mouse; details: 50 ng/ml, 3 days
# Description: Osteoblast were incubated with G-CSF, HGF or remained untreated, and SDF-1 transcription and expression was determined in such cells (FIG. 9).
# Primary calvaria osteoblasts were cultured for 3 days in the presence of SDF-1 (PeproTech, 100 […]), HGF (PeproTech, 50 ng/ml) and G-CSF (Filgrastin, Roche, 50 ng/ml). Conditioned media was collected to determine SDF-1 concentration by ELISA, as described in Example 2. Determination of SDF-1 transcription and expression as in Example 2.
# [2] = system: TRAP+ multinucleated osteoclasts; assay: Osteoblast/BM co-culture, TRAP+ multinucleated osteoclast count; format: cell-based, mouse; details: G-CSF 50 ng/ml, HGF 50 ng/ml, SDF-1 10 and 100 ng/ml; 5 days
# Description: Osteoclast precursors are stimulated by cell-cell contact with osteoblasts to become activated multinucleated TRAP+ bone resorbing cells. To obtain active osteoclasts in vitro, a clvarian osteoblasts are incubated with Vitamine D3 and PG2E which potentiate their M-CSF production and RANKL expression, needed for osteoclast activation. BM cells which contain osteoclast precursors are seeded then on the osteoblast monolayer, for 5 days, to obtain active multinucleated osteoclasts.
# A co-culture of primary mouse osteoblasts and BM (containing ocl precursors as detailed above) was seeded in the presence of G-CSF (50 ng/ml), HGF (50 ng/ml), or SDF-1 (10 and 100 ng/ml). Five days later, TRAP+ multinucleated osteoclasts in the cultures were stained (as described in Example 1) and counted 5 days later.
# CTK = CTK expression in BM after RANKL, RT-PCR; format: in vivo, Balb/c mice; details: RANKL 2 daily subcutaneous injections of 5 mcg for 3 days
# Description: (§1) Balb/c mice were injected with soluble murine RANKL (2 injections per day, 5 mcg per subcutaneous injection). Bones of treated mice were stained for TRAP (in red) indicating mature activated osteoclasts (A). Levels of MMP-9 in BM fluids were determined by zymography assay (B). The expression of CTK mRNA was detected by RT-PCR (C).
# (§2) Mice were administrated with RANKL as follows: 2 daily subcutaneous injections of 5 mcg for 3 days and after two more days in the absence of RANKL. The following parameters were monitored in both treated and control untreated mice: TRAP+ activated osteoclasts (FIG. 11A), induction of osteoclast proteases MMP-9 (FIG. 11B) and CTK (FIG. 11C) in the BM and mobilization (FIG. 12).
# progenitors = assay: Progenitor mobilization by RANKL, semisolid cultures; format: in vivo, Balb/c mice; details: RANKL 2 daily subcutaneous injections of 5 mcg for 3 days
# Description: (A) Progenitor mobilization assayed in semisolid cultures, induced by SDF-1 (10 mcg), HGF (1.5 mcg) injected for 5 days and sRANKL (2×5 mcg) injected for the first 3 days. (B) RANKL induced mobilization is inhibited by administration of anti CXCR4 antibodies (10 mcg) and MMP2/9 inhibitor (100 mcg), injected for the last 2 days. (C) Osteoclast precursors in the BM of treated mice were assayed by culturing BM cells for 4 days with M-CSF and sRANKL, followed by TRAP staining to detect mature active osteoclasts.
# as §2
# TRAP+ active osteoclasts = assay: In vivo osteoclast activation by RANKL, TRAP staining; parameters: species or system Balb/c mice; details: RANKL 2 daily subcutaneous injections of 5 mcg for 3 days
# Description: as §1, §2
# MMP-9 = MMP-9 in BM after RANKL, zymography; format: in vivo, Balb/c mice; details: RANKL 2 daily subcutaneous injections of 5 mcg for 3 days
# Description: as §1, §2
# SDF-1 [3] = assay: SDF-1 cleavage by CTK, SDS-PAGE and blot with anti SDF-1 polyclonal Ab or K15C; format: biochemical; details: SDF-1 20 ng, CTK 1.76 ug/ml
# Description: SDF-1 (20 ng) was incubated with CTK (1.76 ug/ml) for 0, 15, 30, and 60 minutes at 37OC. Samples were subjected than to SDS-PAGE, blotted and detected with anti SDF-1 polyclonal Ab or with the monoclonal Ab K15C, which specifically binds the amino terminal part of the chemokine.
# We further explored the kinetics of SDF-1 cleavage by CTK at a time scale of minutes (FIG. 14). Samples of SDF-1 (20 ng) were incubated with CTK (1.76 ug/ml) for 0, 15, 30, 60, 120 and 240 minutes at 37° C. After collection, the samples were subjected to SDS-PAGE and blotted and detected with anti SDF-1 polyclonal Ab (R&D) or with the monoclonal Ab K15C which specifically binds the amino terminal part of the chemokine.
# SDF-1 [4] = assay: Migration of Pre B ALL G2 cells towards CTK treated SDF-1; format: cell-based; details: SDF-1 125 ng, CTK 1 mcg/ml, about 16 hours, 37° C.
# Description: We employed an in-vitro functional assay for SDF-1 (Example 10) to check the effect of CTK on SDF-1 activity. The assay consisted on migration of leukemic Pre B ALL G2 (cells which migrate very well to relative low concentrations of SDF-1, Spiegel, Blood, 2004) to SDF-1.
# In brief, SDF-1 (125 ng) was incubated with CTK ([…]) in a 100 ul reaction volume adjusted with PBS, for about 16 hours in 37° C. In some samples, protease inhibitor (PI, 1 ul, Sigma, containing the cystein protease inhibitor E-64) was preincubated with CTK for 1.5 hrs, in 37° C., before SDF-1 was added. The leukemic Pre B ALL G2 cells were loaded on transwells and migration towards CTK treated as well as non treated SDF-1 was measured.
# 125 ng/ml SDF-1α was kept untreated or incubated with CTK (1 mcg/ml) for overnight in 37° C. To inhibit enzymatic activity of CTK, 1 and 2 mcl of protease inhibitor (Sigma) was incubated with CTK for 1.5 h before adding to SDF-1. RPMI (600 μl) supplemented with 10% FCS was added with tested SDF-1 to the lower chamber of a Costar 24-wells transwell (Corning (pore size 5 μm), NY). 1×10^5 pre B ALL G2 cells in 100 μl medium were loaded to the upper chamber and were allowed to migrate for 4 hours at 37° C. Migrating cells were collected from the lower chamber and counted for 60 seconds using a FACSCalibur. Control spontaneous migration was performed without SDF-1α in the lower chamber.
molecule,measurement,setting,value
B1,SDF-1 transcription in osteoblasts,SDF-1 [1],induce
same,SDF-1 production in osteoblasts,SDF-1 [1]; conditioned media ELISA,induce
same,level of activated TRAP+ osteoclasts,[2],significantly increased
B2,CTK expression in the bone marrow,CTK,induction
same,mobilization of progenitors,progenitors,mobilization of progenitors
same,formation of TRAP+ active osteoclasts,TRAP+ active osteoclasts,induced formation of TRAP+ active osteoclasts along the endosteum
same,MMP-9 expression in the bone marrow,MMP-9,induction
B3,kinetics of SDF-1 cleavage by CTK,"SDF-1 [3]; 0-240 minutes, 37° C.",fast and site specific SDF-1 cleavage
same,site of SDF-1 cleavage by CTK,SDF-1 [3]; detection with K15C (amino terminal part),N-terminally cleaved
same,chemotactic activity of SDF-1 after incubation with CTK,SDF-1 [4],abolished
